Measured values taken from patent publication US20110126299A1 (published 2011).

Molecular target: Id(λ2^315)-peptide (amino acids 91 to 101) presented on I-E^d (mouse, UniProt P01904 26-216; P01915 32-225)
Assay: cell-based or functional assay

Sequence of Id(λ2^315)-peptide (amino acids 91 to 101) presented on I-E^d (P01904 26-216, chain 1 of 2): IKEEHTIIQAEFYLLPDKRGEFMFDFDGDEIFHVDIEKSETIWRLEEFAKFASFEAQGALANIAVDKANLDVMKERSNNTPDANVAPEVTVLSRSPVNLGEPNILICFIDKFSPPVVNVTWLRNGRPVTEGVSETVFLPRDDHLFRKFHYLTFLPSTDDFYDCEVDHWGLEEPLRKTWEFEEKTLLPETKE
Sequence of Id(λ2^315)-peptide (amino acids 91 to 101) presented on I-E^d (P01915 32-225, chain 2 of 2): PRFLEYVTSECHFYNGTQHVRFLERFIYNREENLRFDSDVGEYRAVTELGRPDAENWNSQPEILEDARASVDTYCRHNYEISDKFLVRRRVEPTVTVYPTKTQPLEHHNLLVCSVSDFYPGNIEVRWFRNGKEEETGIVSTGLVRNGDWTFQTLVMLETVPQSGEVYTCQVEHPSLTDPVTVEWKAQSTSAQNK

light emissions (NF-κB-luciferase bioluminescence in vivo, 24 hours after transfer of Id^+ splenocytes into RAG2^-/^- mice carrying Id-specific Luc^+ T cells): 4 fold
B1: Id-specific αβ TCR specific for the Id(λ2^315)-peptide (amino acids 91 to 101) presented on I-E^d (TCR, V domains shown)
V domain 1: QQKVQQSPESLIVPEGAMTSLNCTFSDSASQYFAWYRQQSGKAPKALMSIFSNGEKEEGRFTIHLNKASLHFSLHIRDSQPSDSALYLCAVRGPNTGNYKYVFGAGTRLKVIA
V domain 2: EAAVTQSPRNKVAVTGGKVTLSCNQTNNHNNMYWYRQDTGHGLRLIHYSYGAGSTEKGDIPDGYKASRPSQENFSLILELATPSQTSVYFCASGDAGQGHSDYTFGSGTRLLVI
